In patent publication US20220229068A1, “DETECTION OF PROTEIN TO PROTEIN INTERACTIONS” (THE GOVERNING COUNCIL OF THE UNIVERSITY OF TORONTO, priority 2019, published 2022):
Each block holds one substance with its values, some of them ahead of it.

Experiments:
Test in all cases: SIMPL ELISA, bait-IN/prey-CIC
[1] = molecular target: NFE2L1 (prey, CIC format) (human) (UniProt Q14494)
[2] = molecular target: T1, PEX11B (prey, CIC format) (human) (UniProt O96011)
T1 sequence (looked up): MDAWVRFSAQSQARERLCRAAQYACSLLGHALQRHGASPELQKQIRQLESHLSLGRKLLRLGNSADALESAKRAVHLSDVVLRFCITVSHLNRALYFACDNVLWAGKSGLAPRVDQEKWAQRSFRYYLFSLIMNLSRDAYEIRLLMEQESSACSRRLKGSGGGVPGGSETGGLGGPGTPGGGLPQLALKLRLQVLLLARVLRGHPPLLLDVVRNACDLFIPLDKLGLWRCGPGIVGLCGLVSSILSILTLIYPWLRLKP

[3] = molecular target: TNFRSF10B (prey, CIC format) (human) (UniProt O14763)
[4] = molecular target: PEX16 (prey, CIC format) (human) (UniProt Q9Y5Y5)
Chain of PEX16 (prey, CIC format) (human) (Q9Y5Y5 whole entry): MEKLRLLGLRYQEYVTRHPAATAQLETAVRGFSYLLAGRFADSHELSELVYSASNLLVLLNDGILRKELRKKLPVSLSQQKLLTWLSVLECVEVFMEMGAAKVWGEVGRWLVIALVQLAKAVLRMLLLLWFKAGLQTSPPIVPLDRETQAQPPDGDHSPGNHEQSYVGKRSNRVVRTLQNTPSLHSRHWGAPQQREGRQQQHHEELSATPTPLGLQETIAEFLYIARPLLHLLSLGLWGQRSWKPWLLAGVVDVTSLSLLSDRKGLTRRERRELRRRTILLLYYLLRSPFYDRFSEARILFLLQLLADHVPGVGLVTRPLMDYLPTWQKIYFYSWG

[5] = molecular target: T2, BATF (prey, CIC format) (human) (UniProt Q16520)
T2 sequence (looked up): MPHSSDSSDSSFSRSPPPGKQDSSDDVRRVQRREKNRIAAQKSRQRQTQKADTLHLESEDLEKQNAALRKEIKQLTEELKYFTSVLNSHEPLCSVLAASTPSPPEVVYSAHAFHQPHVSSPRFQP

[6] = molecular target: T3, MCM5 (prey, CIC format) (human) (UniProt P33992)
T3 sequence (looked up): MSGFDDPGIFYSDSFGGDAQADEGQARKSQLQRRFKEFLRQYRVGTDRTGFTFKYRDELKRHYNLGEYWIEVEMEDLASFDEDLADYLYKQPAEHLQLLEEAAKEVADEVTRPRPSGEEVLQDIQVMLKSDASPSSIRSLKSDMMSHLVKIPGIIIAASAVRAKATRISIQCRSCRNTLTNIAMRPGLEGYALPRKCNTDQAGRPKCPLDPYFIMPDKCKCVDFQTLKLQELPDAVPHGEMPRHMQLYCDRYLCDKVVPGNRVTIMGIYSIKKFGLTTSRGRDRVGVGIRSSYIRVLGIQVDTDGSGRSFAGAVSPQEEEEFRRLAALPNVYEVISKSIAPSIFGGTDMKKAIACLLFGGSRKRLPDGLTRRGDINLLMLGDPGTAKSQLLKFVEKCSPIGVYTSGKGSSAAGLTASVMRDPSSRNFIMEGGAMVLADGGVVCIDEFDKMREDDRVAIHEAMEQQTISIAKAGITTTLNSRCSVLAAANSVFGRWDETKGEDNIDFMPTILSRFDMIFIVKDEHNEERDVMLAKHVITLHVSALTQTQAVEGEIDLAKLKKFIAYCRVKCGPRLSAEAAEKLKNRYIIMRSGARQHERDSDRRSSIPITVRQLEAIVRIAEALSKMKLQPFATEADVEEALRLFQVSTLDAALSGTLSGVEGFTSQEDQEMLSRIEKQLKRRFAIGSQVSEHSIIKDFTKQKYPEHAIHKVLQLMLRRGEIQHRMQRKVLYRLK

[7] = molecular target: MCM3 (prey, CIC format) (human) (UniProt P25205)
Chain of MCM3 (prey, CIC format) (human) (P25205 whole entry): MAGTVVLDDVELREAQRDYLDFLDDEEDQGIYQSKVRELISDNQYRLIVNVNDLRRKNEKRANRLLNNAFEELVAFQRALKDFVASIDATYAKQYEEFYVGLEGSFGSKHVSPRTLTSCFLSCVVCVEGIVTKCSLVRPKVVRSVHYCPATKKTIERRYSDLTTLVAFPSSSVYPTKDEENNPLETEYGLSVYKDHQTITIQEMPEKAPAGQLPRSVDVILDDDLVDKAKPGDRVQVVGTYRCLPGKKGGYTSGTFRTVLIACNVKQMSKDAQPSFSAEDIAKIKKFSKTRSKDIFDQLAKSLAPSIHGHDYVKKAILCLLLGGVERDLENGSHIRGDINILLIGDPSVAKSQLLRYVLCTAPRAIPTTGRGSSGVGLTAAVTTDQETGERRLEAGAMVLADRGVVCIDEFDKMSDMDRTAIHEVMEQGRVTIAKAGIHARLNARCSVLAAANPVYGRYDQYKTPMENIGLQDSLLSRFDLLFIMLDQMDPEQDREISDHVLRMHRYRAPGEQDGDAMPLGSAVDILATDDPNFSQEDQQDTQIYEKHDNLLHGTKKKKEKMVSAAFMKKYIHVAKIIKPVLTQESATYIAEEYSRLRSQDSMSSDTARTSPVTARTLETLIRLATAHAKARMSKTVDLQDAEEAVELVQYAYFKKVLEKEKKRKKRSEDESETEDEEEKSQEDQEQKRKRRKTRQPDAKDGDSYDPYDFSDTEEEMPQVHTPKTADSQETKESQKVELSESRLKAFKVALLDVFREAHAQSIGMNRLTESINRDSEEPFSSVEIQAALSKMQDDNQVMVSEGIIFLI

[8] = molecular target: T4, S100B (prey, CIC format) (human) (UniProt P04271)
T4 sequence (looked up): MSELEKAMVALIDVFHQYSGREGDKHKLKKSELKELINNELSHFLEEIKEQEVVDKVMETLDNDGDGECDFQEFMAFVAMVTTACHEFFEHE

[9] = molecular target: GRAP2 (prey, CIC format) (human) (UniProt O75791)
Chain of GRAP2 (prey, CIC format) (human) (O75791 whole entry): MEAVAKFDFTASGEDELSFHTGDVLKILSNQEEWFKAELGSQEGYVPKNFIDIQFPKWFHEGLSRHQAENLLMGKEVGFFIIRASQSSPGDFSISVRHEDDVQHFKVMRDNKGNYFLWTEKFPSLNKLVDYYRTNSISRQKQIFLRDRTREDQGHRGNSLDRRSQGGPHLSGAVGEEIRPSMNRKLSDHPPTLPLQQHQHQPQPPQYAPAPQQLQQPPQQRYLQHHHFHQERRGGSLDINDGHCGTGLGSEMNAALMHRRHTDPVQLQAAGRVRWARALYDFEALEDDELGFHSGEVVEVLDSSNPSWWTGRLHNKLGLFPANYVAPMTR

[10] = molecular target: PCNA (prey, CIC format) (human) (UniProt P12004)
Chain of PCNA (prey, CIC format) (human) (P12004 whole entry): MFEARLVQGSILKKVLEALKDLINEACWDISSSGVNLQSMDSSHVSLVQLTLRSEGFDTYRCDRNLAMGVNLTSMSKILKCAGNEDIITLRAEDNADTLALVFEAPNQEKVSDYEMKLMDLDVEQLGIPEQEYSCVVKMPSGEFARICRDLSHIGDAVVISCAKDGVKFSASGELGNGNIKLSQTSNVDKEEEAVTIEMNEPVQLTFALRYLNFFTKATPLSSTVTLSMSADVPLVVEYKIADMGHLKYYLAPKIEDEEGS

[11] = molecular target: ZBTB16 (prey, CIC format) (human) (UniProt Q05516)
Chain of ZBTB16 (prey, CIC format) (human) (Q05516 whole entry): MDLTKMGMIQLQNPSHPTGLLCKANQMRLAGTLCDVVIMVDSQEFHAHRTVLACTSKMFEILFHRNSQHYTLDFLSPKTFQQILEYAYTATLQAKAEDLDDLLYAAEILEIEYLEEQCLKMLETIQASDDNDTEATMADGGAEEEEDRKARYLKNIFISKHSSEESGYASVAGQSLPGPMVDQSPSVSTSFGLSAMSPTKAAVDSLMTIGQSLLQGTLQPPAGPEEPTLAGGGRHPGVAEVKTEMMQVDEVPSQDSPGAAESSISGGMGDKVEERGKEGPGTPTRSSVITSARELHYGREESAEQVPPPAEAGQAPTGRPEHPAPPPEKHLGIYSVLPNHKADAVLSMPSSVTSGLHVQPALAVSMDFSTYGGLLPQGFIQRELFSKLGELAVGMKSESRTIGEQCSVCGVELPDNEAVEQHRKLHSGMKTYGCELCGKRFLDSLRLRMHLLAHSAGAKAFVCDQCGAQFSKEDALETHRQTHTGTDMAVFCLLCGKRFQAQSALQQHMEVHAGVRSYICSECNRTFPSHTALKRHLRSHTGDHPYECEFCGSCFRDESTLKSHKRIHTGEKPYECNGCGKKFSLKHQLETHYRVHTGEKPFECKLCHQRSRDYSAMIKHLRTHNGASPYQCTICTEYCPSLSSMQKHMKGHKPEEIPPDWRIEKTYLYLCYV

[12] = molecular target: T5, LAT (prey, CIC format) (human) (UniProt O43561)
T5 sequence (looked up): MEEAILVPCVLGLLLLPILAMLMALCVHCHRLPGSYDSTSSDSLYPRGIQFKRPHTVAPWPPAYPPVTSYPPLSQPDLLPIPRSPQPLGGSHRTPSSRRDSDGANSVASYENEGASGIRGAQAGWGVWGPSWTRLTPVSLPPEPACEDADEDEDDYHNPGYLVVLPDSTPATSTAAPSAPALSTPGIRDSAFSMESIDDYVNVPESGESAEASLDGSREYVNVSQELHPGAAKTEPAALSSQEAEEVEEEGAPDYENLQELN

[13] = molecular target: T6, RB1 (prey, CIC format) (human) (UniProt P06400)
T6 sequence (looked up): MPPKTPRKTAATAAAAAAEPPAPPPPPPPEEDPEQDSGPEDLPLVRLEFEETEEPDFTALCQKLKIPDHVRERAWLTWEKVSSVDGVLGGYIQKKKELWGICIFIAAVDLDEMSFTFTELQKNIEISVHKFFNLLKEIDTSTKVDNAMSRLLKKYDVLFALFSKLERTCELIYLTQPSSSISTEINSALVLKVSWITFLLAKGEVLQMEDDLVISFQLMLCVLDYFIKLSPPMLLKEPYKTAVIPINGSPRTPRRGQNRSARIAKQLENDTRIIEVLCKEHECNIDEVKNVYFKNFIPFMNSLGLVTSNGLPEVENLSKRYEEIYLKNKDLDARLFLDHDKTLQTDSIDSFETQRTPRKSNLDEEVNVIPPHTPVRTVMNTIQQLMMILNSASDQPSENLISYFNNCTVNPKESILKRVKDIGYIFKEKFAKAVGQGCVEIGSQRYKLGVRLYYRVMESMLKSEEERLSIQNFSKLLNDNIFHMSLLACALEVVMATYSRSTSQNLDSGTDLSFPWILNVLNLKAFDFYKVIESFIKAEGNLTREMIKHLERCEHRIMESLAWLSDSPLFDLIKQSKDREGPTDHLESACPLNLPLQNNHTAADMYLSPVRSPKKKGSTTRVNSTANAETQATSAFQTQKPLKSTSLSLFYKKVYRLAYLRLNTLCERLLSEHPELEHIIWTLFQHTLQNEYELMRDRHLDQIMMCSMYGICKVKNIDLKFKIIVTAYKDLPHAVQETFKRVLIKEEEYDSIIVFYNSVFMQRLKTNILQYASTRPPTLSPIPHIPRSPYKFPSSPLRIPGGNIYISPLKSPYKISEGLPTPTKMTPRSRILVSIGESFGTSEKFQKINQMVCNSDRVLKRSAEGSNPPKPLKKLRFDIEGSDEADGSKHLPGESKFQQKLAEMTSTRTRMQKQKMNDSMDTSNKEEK

[14] = molecular target: PPP3R1 (prey, CIC format) (human) (UniProt P63098)
Chain of PPP3R1 (prey, CIC format) (human) (P63098 whole entry): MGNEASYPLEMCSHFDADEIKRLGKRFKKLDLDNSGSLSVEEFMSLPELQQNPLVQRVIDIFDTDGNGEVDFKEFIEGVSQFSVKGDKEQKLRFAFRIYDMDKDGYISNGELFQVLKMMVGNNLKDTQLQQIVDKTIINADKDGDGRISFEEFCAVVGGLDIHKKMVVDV

[15] = molecular target: T7, DCP1A (prey, CIC format) (human) (UniProt Q9NPI6)
T7 sequence (looked up): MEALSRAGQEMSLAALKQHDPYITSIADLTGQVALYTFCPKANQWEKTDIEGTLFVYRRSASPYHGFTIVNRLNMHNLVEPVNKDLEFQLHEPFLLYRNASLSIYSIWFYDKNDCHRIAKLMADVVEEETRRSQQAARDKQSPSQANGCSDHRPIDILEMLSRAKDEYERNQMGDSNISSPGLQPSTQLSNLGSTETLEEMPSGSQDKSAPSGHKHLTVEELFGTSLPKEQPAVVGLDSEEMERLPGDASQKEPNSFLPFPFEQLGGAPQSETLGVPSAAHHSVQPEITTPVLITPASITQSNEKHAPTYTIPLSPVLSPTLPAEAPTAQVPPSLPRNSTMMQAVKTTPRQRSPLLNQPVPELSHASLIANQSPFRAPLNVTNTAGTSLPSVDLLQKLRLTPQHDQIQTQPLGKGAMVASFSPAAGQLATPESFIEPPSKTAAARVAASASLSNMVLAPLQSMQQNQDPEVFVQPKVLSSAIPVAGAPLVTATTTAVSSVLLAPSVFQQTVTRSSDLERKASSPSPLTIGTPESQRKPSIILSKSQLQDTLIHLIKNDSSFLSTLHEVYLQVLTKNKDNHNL

[16] = molecular target: CASP3 (prey, CIC format) (human) (UniProt P42574)
Chain of CASP3 (prey, CIC format) (human) (P42574 whole entry): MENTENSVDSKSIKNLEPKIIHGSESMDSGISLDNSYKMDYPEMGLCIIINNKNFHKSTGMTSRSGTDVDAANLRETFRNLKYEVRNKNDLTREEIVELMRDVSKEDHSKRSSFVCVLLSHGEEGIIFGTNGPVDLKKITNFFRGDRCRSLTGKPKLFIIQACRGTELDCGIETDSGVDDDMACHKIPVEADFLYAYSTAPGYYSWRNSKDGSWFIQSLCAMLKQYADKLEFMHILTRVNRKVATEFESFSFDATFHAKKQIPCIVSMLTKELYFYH

[17] = molecular target: CKS1B (prey, CIC format) (human) (UniProt P61024)
Chain of CKS1B (prey, CIC format) (human) (P61024 whole entry): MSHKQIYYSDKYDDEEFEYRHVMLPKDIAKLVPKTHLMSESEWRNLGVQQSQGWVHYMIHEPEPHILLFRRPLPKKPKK

[18] = molecular target: CCNA1 (prey, CIC format) (human) (UniProt P78396)
Chain of CCNA1 (prey, CIC format) (human) (P78396 whole entry): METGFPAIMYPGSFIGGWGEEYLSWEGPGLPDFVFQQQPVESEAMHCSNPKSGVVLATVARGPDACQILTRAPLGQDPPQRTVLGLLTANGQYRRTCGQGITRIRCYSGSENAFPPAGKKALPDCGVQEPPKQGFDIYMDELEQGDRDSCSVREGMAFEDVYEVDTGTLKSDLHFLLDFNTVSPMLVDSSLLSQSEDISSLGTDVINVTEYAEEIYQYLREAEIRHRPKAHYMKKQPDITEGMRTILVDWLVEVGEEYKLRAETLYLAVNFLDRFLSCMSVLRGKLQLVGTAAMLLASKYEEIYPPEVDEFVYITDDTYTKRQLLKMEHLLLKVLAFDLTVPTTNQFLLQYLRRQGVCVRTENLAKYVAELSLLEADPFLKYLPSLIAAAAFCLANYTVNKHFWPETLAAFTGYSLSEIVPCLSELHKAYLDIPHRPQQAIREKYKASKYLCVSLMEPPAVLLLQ

[19] = molecular target: T8, DRAP1 (prey, CIC format) (human) (UniProt Q14919)
T8 sequence (looked up): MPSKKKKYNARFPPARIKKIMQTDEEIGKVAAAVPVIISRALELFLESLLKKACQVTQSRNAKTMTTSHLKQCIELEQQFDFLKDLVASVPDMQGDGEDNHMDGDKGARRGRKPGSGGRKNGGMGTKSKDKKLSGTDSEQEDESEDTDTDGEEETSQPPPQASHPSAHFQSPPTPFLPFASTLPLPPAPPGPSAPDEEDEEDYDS

[20] = molecular target: CGB5 (prey, CIC format) (human) (UniProt P0DN86)
[21] = molecular target: T9, NCBP2 (prey, CIC format) (human) (UniProt P52298)
T9 sequence (looked up): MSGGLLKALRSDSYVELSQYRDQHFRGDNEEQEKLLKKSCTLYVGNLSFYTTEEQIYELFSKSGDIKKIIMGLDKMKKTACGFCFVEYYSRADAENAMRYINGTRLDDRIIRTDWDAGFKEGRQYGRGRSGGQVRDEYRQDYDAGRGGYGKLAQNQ

[22] = molecular target: CD58 (prey, CIC format) (human) (UniProt P19256)
Chain of CD58 (prey, CIC format) (human) (P19256 29-250 limits assumed): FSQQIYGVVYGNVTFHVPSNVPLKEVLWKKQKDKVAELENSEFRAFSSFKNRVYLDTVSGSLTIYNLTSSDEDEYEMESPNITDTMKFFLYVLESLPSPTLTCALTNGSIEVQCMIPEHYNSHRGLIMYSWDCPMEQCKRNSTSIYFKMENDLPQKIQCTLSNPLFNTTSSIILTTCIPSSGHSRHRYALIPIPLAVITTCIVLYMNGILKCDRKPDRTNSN

[23] = molecular target: GRB2 (prey, CIC format) (human) (UniProt P62993)
[24] = molecular target: BCL2L1 (prey, CIC format) (human) (UniProt Q07817)
Chain of BCL2L1 (prey, CIC format) (human) (Q07817 whole entry): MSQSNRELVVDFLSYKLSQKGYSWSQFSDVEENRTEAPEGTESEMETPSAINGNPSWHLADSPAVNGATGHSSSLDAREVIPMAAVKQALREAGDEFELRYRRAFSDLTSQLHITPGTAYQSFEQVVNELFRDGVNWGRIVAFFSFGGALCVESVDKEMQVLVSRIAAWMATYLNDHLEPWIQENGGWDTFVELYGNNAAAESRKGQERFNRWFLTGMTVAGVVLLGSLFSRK

[25] = molecular target: DDIT3 (prey, CIC format) (human) (UniProt P35638)
Chain of DDIT3 (prey, CIC format) (human) (P35638 whole entry): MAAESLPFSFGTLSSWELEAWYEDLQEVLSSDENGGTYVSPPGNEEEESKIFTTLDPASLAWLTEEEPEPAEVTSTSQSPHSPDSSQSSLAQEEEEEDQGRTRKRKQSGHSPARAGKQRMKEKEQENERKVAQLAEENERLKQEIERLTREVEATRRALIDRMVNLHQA

[26] = molecular target: T10, NRG1 (prey, CIC format) (human) (UniProt Q02297)
T10 sequence (looked up): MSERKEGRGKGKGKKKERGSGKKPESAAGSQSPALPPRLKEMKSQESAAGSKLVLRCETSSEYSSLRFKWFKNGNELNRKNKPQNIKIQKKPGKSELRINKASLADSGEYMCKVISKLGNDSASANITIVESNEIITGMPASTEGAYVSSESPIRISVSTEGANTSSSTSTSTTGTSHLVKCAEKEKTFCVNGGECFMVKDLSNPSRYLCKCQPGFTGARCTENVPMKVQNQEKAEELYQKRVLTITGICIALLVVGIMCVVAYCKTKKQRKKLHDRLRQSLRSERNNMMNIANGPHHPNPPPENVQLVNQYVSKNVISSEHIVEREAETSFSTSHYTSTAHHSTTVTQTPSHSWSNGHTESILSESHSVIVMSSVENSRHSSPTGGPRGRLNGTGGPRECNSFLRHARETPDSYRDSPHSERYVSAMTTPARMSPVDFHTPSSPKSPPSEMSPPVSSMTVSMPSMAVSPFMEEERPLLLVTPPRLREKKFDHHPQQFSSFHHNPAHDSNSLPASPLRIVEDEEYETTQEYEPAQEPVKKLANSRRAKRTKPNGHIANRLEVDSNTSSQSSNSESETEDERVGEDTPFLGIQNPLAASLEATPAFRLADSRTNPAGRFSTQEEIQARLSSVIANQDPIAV

Chain of S100A1 (bait, IN format) (P23297 whole entry): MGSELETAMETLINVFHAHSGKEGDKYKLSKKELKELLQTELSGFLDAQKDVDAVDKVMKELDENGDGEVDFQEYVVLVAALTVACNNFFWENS
Chain of HDAC1 (bait, IN format) (Q13547 whole entry): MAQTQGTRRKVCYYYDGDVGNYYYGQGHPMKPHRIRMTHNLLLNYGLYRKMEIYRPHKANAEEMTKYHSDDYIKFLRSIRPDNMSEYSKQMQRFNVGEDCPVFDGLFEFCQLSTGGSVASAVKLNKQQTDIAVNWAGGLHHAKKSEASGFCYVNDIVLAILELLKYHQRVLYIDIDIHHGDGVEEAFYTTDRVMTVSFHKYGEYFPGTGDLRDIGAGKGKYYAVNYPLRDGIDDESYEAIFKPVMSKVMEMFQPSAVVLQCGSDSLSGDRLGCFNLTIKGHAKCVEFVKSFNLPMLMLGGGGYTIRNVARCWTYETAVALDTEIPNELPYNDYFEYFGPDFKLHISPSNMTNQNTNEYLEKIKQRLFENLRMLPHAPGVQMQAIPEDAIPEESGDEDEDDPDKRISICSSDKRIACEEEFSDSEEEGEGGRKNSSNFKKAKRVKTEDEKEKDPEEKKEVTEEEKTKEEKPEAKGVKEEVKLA

Substance: MAFG (bait, IN format) (from UniProt O15525 1-162)
PLU mean [1]: 1.72 | PLU mean [2]: 0.341 | PLU mean [3]: 0.459

Substance: MCM2 (bait, IN format) (from UniProt P49736 1-904)
PLU mean [6]: 0.35 | PLU mean [7]: 0.938 | PLU mean [8]: 0.102

Substance: FEN1 (bait, IN format) (from UniProt P39748 1-380) (enzyme)
PLU mean [9]: 0.342 | PLU mean [10]: 0.349

Substance: S100A1 (bait, IN format) (from UniProt P23297 1-94)
PLU mean [8]: 0.822 | PLU mean [16]: 0.158

Substance: CGA (bait, IN format) (from UniProt P01215 25-116) (ligand)
PLU mean [7]: 0.0738 | PLU mean [20]: 0.435 | PLU mean [21]: 0.0363 | PLU mean [22]: 0.131

Substance: CBLB (bait, IN format) (from UniProt Q13191 1-982)
PLU mean [23]: 2.61 | PLU mean [24]: 0.272

Substance: ERBB3 (bait, IN format) (from UniProt P21860 20-1342) (receptor)
PLU mean [25]: 0.28 | PLU mean [10]: 0.0812 | PLU mean [26]: 1.22

Results, then the substance that gave them:

PLU mean [2]: 1.18 | PLU mean [4]: 1.09 | PLU mean [5]: 0.154
Substance: PEX19 (bait, IN format) (from UniProt P40855 1-299)

PLU mean [11]: 0.492 | PLU mean [12]: 0.222 | PLU mean [13]: 0.54 | PLU mean [14]: 0.247
Substance: HDAC1 (bait, IN format) (from UniProt Q13547 1-482) (enzyme)

PLU mean [12]: 0.215 | PLU mean [15]: 0.398
Substance: SMAD4 (bait, IN format) (from UniProt Q13485 1-552)

PLU mean [17]: 0.171
Substance: HBA2 (bait, IN format) (from UniProt P69905 1-142)

PLU mean [18]: 0.686 | PLU mean [19]: 0.229
Substance: CDKN1B (bait, IN format) (from UniProt P46527 1-198)
